Results published in patent US20200317768A1 (published 2020).

T1: cynomolgus monkey FcγRIIa1 extracellular domain, C-terminal His-tag (cynomolgus monkey)
T1 construct: also called cyno FcγRIIa1; cynoFcgRIIa1; not shown: His-tag added to C-terminus
T1 chain: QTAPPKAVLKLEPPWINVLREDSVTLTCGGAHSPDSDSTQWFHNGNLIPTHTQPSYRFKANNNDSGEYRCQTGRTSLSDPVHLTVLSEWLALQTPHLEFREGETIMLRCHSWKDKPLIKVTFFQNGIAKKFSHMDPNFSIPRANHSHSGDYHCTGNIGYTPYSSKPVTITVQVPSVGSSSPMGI

T2: cynomolgus monkey FcγRIIa2 extracellular domain, C-terminal His-tag (cynomolgus monkey)
T2 construct: also called cyno FcγRIIa2; cynoFcgRIIa2; not shown: His-tag added to C-terminus
T2 chain: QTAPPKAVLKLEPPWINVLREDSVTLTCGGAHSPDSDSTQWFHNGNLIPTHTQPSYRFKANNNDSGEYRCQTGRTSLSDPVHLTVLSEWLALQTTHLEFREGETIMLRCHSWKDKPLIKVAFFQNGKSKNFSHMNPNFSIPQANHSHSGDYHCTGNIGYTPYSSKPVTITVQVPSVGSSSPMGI

T3: cynomolgus monkey FcγRIIa3 extracellular domain, C-terminal His-tag (cynomolgus monkey)
T3 construct: also called cyno FcγRIIa3; cynoFcgRIIa3; not shown: His-tag added to C-terminus
T3 chain: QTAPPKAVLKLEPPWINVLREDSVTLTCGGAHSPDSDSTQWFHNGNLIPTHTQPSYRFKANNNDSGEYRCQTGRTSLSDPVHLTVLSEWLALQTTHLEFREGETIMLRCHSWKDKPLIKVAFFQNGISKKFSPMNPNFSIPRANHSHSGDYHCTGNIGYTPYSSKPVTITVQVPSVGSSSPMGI

T4: cynomolgus monkey FcγRIIb extracellular domain, C-terminal His-tag (cynomolgus monkey)
T4 construct: also called cyno FcγRIIb; cynoFcγRIIb; not shown: His-tag added to C-terminus
T4 chain: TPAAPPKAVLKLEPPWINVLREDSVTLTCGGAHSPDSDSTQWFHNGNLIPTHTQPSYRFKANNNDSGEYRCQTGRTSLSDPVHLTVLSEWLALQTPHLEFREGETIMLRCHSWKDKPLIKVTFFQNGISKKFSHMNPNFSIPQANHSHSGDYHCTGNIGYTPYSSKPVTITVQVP

T5: human FcγRIIaH extracellular domain, C-terminal His-tag (human, UniProt P12318 34-217)
T5 construct: also called human FcγRIIa (type H); FcgRIIaH; not shown: His-tag added to C-terminus
T5 sequence: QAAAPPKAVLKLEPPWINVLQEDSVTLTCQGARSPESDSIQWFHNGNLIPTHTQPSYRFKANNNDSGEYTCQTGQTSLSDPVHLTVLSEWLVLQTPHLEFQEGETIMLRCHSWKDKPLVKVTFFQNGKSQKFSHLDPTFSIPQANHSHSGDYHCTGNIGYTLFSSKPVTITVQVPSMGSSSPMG

T6: human FcγRIIaR extracellular domain, C-terminal His-tag (human, UniProt P12318 34-217)
T6 construct: also called human FcγRIIa (type R); FcgRIIaR; not shown: His-tag added to C-terminus
T6 chain: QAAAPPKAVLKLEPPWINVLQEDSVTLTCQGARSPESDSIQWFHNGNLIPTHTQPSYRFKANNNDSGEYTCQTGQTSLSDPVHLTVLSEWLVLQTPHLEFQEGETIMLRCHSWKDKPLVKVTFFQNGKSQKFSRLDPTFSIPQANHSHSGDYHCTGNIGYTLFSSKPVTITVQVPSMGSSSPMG

T7: human FcγRIIb extracellular domain, C-terminal His-tag (human, UniProt P31994 43-217)
T7 construct: also called humanFcgRIIb; not shown: His-tag added to C-terminus
T7 sequence: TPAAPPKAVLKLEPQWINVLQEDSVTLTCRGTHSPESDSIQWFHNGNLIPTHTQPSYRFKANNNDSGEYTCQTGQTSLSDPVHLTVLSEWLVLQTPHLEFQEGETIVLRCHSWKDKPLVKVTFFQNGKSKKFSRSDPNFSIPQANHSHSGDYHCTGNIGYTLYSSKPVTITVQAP

B1: M103205H795-SG1012 / M103202L889-SK1 (antibody, human IgG1, kappa)
heavy: QVTLKESGPVLVKPTETLTLTCTVSGIDLSHDDISWVRQAPGKGLEWVGIISYAGSTYYASWAKGRLTISKDTSKNQVVLTMTNMDPVDTATYYCARGVPAYSHGGDLWGQGTLVTVSSASTKGPSVFPLAPSSKSTSGGTAALGCLVKDYFPEPVTVSWNSGALTSGVHTFPAVLQSSGLYSLSSVVTVPSSSLGTQTYICNVNHKPSNTKVDKKVEPKSCDKTHTCPPCPAPELLNGPSVFLFPPKPKDTLMISRTPEVTCVVVDVSEEDPEVKFNWYVDGVEVHNAKTKPREEQYNSTYRVVSVLTVLHQDWLNGKEYKCKVSNKALPKPIEKTISKAKGQPREPQVYTLPPSREEMTKNQVSLTCLVKGFYPSDIAVEWESNGQPENNYKTTPMVLDSDGSFFLYSKLTVDKSRWQQGNVFSCSVMHEALHAHYTQKSLSLSP
light: DIVMTQSPATLSLSPGERATLSCTSSQSVYHANWLSWFQQKPGQPPKLLIYWASTLAYGVPSRFSGSGSGTDFTLTISSLQPEDAATYYCAGGYGGGRYAFGQGTKVEIKRTVAAPSVFIFPPSDEQLKSGTASVVCLLNNFYPREAKVQWKVDNALQSGNSQESVTEQDSKDSTYSLSSTLTLSKADYEKHKVYACEVTHQGLSSPVTKSFNRGEC
notes: the text says N434A was introduced into MY101 (which also has A330K); also called MS1032LO06-SG1012
B2: M103205H795-SG1016 / M103202L889-SK1 (antibody, human IgG1, kappa)
heavy: QVTLKESGPVLVKPTETLTLTCTVSGIDLSHDDISWVRQAPGKGLEWVGIISYAGSTYYASWAKGRLTISKDTSKNQVVLTMTNMDPVDTATYYCARGVPAYSHGGDLWGQGTLVTVSSASTKGPSVFPLAPSSKSTSGGTAALGCLVKDYFPEPVTVSWNSGALTSGVHTFPAVLQSSGLYSLSSVVTVPSSSLGTQTYICNVNHKPSNTKVDKKVEPKSCDKTHTCPPCPAPELLNGPSVFLFPPKPKDTLMISRTPEVTCVVVDVSEEDPEVKFNWYVDGVEVHNAKTKPREEQYNSTYRVVSVLTVLHRDWLNGKEYKCKVSNKALPKPIEKTISKAKGQPREPQVYTLPPSREEMTKNQVSLTCLVKGFYPSDIAVEWESNGQPENNYKTTPMVLRSDGSFFLYSKLTVDKSRWQQGNVFSCSVMHEALHAHYTQKSLSLSP
light: DIVMTQSPATLSLSPGERATLSCTSSQSVYHANWLSWFQQKPGQPPKLLIYWASTLAYGVPSRFSGSGSGTDFTLTISSLQPEDAATYYCAGGYGGGRYAFGQGTKVEIKRTVAAPSVFIFPPSDEQLKSGTASVVCLLNNFYPREAKVQWKVDNALQSGNSQESVTEQDSKDSTYSLSSTLTLSKADYEKHKVYACEVTHQGLSSPVTKSFNRGEC
notes: the text says Q311R/D399K; also called MS1032LO06-SG1016

Columns and labels:
[1] = target: T1, cynomolgus monkey FcγRIIa1 …; assay: SPR (BIACORE), antibody captured, FcγR analyte
Experimental: (§1) The kinetic analysis of interactions between these antibodies and FcγR was carried out using BIACORE® T200 or BIACORE® 4000 (GE Healthcare). HBS-EP+ (GE Healthcare) was used as the running buffer, and the measurement temperature was set to 25° C. A chip produced by immobilizing Protein A. Protein A/G or mouse anti-human IgG kappa light chain (BD Biosciences) onto a Series S Sensor Chip CM4 or CM5 (GE Healthcare) by the amine-coupling method was used. […] After the measurement, the antibody captured on the chip was washed off by allowing reaction with 10 mM glycine-HCl, pH1.5 and 25 mM NaOH so that the chip was regenerated and used repeatedly. The sensorgrams obtained as measurement results were analyzed by the 1:1 Langmuir binding model using the BIACORE® Evaluation Software to calculate the binding rate constant ka (L/mol/s) and dissociation rate constant kd (l/s), and the dissociation constant KD (mol/L) was calculated from these values. […] Regarding such interactions, KD values were calculated using the following 1:1 binding model described in BIACORE® T100 Software Handbook BR1006-48 Edition AE.

[2] = target: T2, cynomolgus monkey FcγRIIa2 …; assay: SPR (BIACORE), antibody captured, FcγR analyte
Experimental: as §1

[3] = target: T3, cynomolgus monkey FcγRIIa3 …; assay: SPR (BIACORE), antibody captured, FcγR analyte
Experimental: as §1

[4] = target: T4, cynomolgus monkey FcγRIIb extracellular …; assay: SPR (BIACORE), antibody captured, FcγR analyte
Experimental: as §1

[5] = target: T8, cynomolgus monkey FcγRIIIaS extracellular domain, C-terminal His-tag (cynomolgus monkey, UniProt A3RFZ7 21-206 (rhesus entry)); assay: SPR (BIACORE), antibody captured, FcγR analyte
T8 construct: also called cyno FcγRIIIaS; cynoFcγRIIIaS; not shown: His-tag added to C-terminus
Experimental: as §1

[6] = target: T5, human FcγRIIaH extracellular domain, …; assay: SPR (BIACORE), antibody captured, FcγR analyte
Experimental: as §1

[7] = target: T6, human FcγRIIaR extracellular domain, …; assay: SPR (BIACORE), antibody captured, FcγR analyte
Experimental: as §1

[8] = target: T7, human FcγRIIb extracellular domain, …; assay: SPR (BIACORE), antibody captured, FcγR analyte
Experimental: as §1

[9] = target: T9, human FcγRIIIaV extracellular domain, C-terminal His-tag (human, UniProt P08637 17-208); assay: SPR (BIACORE), antibody captured, FcγR analyte
T9 construct: also called FcgRIIIaV; not shown: His-tag added to C-terminus
Experimental: as §1

[10] = target: T1, cynomolgus monkey FcγRIIa1 …; assay: SPR (BIACORE); KD of parent SG1 / KD of variant;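 note: relative to parent M103205H795-SG1 carrying the SG1 human heavy chain constant region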
Experimental: as §1

[11] = target: T2, cynomolgus monkey FcγRIIa2 …; assay: SPR (BIACORE); KD of parent SG1 / KD of variant;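 note: relative to parent M103205H795-SG1 carrying the SG1 human heavy chain constant region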
Experimental: as §1

[12] = target: T3, cynomolgus monkey FcγRIIa3 …; assay: SPR (BIACORE); KD of parent SG1 / KD of variant;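 note: relative to parent M103205H795-SG1 carrying the SG1 human heavy chain constant region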
Experimental: as §1

[13] = target: T4, cynomolgus monkey FcγRIIb extracellular …; assay: SPR (BIACORE); KD of parent SG1 / KD of variant;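 note: relative to parent M103205H795-SG1 carrying the SG1 human heavy chain constant region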
Experimental: as §1

[14] = target: T8, cynomolgus monkey FcγRIIIaS …; assay: SPR (BIACORE); KD of parent SG1 / KD of variant
Experimental: as §1

[15] = target: T5, human FcγRIIaH extracellular domain, …; assay: SPR (BIACORE); KD of parent SG1 / KD of variant
Experimental: as §1

[16] = target: T6, human FcγRIIaR extracellular domain, …; assay: SPR (BIACORE); KD of parent SG1 / KD of variant
Experimental: as §1

[17] = target: T7, human FcγRIIb extracellular domain, …; assay: SPR (BIACORE); KD of parent SG1 / KD of variant
Experimental: as §1

[18] = target: T9, human FcγRIIIaV extracellular domain, …; assay: SPR (BIACORE); KD of parent SG1 / KD of variant
Experimental: as §1

T8 sequence (A3RFZ7 21-206): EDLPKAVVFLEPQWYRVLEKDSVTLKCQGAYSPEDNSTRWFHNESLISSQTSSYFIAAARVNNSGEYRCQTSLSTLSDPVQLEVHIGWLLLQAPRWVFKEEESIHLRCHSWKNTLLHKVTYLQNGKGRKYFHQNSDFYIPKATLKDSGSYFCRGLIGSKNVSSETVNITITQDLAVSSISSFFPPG
T9 sequence (P08637 17-208 F176V): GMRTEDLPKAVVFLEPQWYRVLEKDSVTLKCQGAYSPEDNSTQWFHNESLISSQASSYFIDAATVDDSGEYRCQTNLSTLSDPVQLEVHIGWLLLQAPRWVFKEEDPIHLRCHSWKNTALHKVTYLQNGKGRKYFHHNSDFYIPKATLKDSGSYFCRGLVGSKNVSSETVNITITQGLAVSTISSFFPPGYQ

| Binder | Kd [1] [µM] | Kd [2] [µM] | Kd [3] [µM] | Kd [4] [µM] | Kd [5] [µM] | Kd [6] [µM] | Kd [7] [µM] | Kd [8] [µM] | Kd [9] [µM] | KD fold (SG1 = 1) [10] [fold] | KD fold (SG1 = 1) [11] [fold] | KD fold (SG1 = 1) [12] [fold] | KD fold (SG1 = 1) [13] [fold] | KD fold (SG1 = 1) [14] [fold] | KD fold (SG1 = 1) [15] [fold] | KD fold (SG1 = 1) [16] [fold] | KD fold (SG1 = 1) [17] [fold] | KD fold (SG1 = 1) [18] [fold] |
| --- | --- | --- | --- | --- | --- | --- | --- | --- | --- | --- | --- | --- | --- | --- | --- | --- | --- | --- |
| B1 | 1.1 | 1 | 2.3 | 0.27 | 2.1 | 0.5 | 0.75 | 0.49 | 5.8 | 4.4 | 4.7 | 3.8 | 7.2 | 0.13 | 1.8 | 1.4 | 9.6 | 0.11 |
| B2 | 1.3 | 1.1 | 2.2 | 0.33 | 2.4 | 0.5 | 0.82 | 0.55 | 10 | 3.8 | 4.1 | 3.9 | 6 | 0.12 | 1.5 | 1.2 | 8.7 | 0.06 |
